Data: the RNAGym collection of RNA variant scans (doi:10.1073/pnas.2313332121)
Fewer inactive variants are shown than the library holds.

B1: TPR 5TU (parent)
chain: GGAUCUUCUCGAUCUAACAAAAAAGACAAAUCUGCCACAAAGCUUGAGAGCAUCUUCGGAUGCAGAGGCGGCAGCCUUCGGUGGCGCGAUAGCGCCAACGUUCUCAACUAUGACACGCAAAACGCGUGCUCCGUUGAAUGGAGUUUAUCAUG

Variants of: B1
Experiment: polymerase ribozyme fitness, log enrichment relative to wild type (log ratio); higher = more active; in vitro selection for triplet polymerase activity
Outline: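 Only genotypes with ≥10 input reads and ≥1 read per output were kept after Illumina sequencing of input and output libraries. These libraries were PCR-built, transcribed mutants of each subunit of a heterodimeric triplet polymerase ribozyme, each put through one triplicate in vitro selection round with frozen incubation at −7 °C, gel excision of extended constructs, streptavidin-bead capture and RT-PCR. Fitness is a logarithmic ratio of genotype enrichment to wild-type enrichment, from inverse-variance-weighted replicate averages, with the logarithm in base 2.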

| Variant | polymerase ribozyme fitness (log ratio) |
| --- | --- |
| C35U G68U U90G G117A U144G | ≤ -4.2 |
| U33G C54A C96A A98U | -4.06 |
| C35U C76U C96A C125G A142G | -2.86 |
| C35G U45C G67U G83C | ≤ -4.2 |
| C32U C51G G70A C76U G83U G84A A98G U135G | ≤ -4.2 |
| U33A G71U C79G C87G C95G | ≤ -4.2 |
| U33A C51U C57G C75G C93U C125A G140U | ≤ -4.2 |
| U33A A73U C85U U127G | -2.45 |
| U31G C96U C99U U127G | ≤ -4.2 |
| C32U C43A C87G A107C C118U G124C | ≤ -4.2 |
| C35U G92A | -3.33 |
| C35G G126U | -4.16 |
| C32A G71U A91G A119G A120U U127C G136C | ≤ -4.2 |
| C35A C51U G59C A64G G83A | ≤ -4.2 |
| C35U G81C C85G | -1.5 |
| C35A C54U G94U U135G G140C | ≤ -4.2 |
| G34A U55A A91G G117U | -4.06 |
| U33G G42A A49G C95G | ≤ -4.2 |
| C36A U55A G124A G141U | ≤ -4.2 |
| C36A A110U A122U | ≤ -4.2 |
| C32G A110C | ≤ -4.2 |
| C36A A138U U145A A147C | -3.85 |
| G34A G70A A89G A122G | -4.01 |
| C32G A37U U53A | ≤ -4.2 |

| Variant | polymerase ribozyme fitness (log ratio) |
| --- | --- |
| C35G C57U | ≤ -4.2 |
| C32U C96U C149U U151A | ≤ -4.2 |
| G34U A47G G92U C99U A119C U146A | ≤ -4.2 |
| G34A G94U U101A | ≤ -4.2 |
| U33C U45A C85G G133U | ≤ -4.2 |
| C35U C93A C132U A147C | -4.05 |
| C32U C75U G81A G84C A121C U127C A138G G140A | ≤ -4.2 |
| U33C C125A | -3.35 |
| U33A U56A C93A G94A A110C A120G U134G U145G | ≤ -4.2 |
| U33A A98G G124C | ≤ -4.2 |
| C35U U55G A60C A91U A119G A121U C149G | ≤ -4.2 |
| C32U A40C | -4.1 |
| C36A C85A C118U | -3.82 |
| C35G A40U G71A C87U G136U U148G | ≤ -4.2 |
| C35U A60G G83A A150G | -2.56 |
| C32A U56A C103G A107U | ≤ -4.2 |
| C35U C54A G58C | -1.17 |
| U33C A47G C93U C103A C132U A137C | ≤ -4.2 |
| C35U A107U | -4.03 |
| U31G G48C U111G G143A | ≤ -4.2 |
| U33G G94A | -3.04 |
| C36A C75A C79U A115U A120C C125U | ≤ -4.2 |
| U33G C57G U104G | ≤ -4.2 |
| G34C C57U G80C C149U | ≤ -4.2 |

| Variant | polymerase ribozyme fitness (log ratio) |
| --- | --- |
| U33C C54A U55A G83A C96A C125G G126C U127G | ≤ -4.2 |
| U33C A91U | -3.67 |
| G34U G58U C87A A98C G143C | ≤ -4.2 |
| U33G C43G A66G C93A C95U C118G | ≤ -4.2 |
| C35U U45A G59C C93G U144A | ≤ -4.2 |
| C35U A97U | -2.26 |
| G34A U55G | -0.61 |
| C35U A97U U134A | -3.07 |
| U33G A47U A49G C75A C76U A91U C93G A98U C114A G136C | ≤ -4.2 |
| C35U A41G G68A C96G A98C C108G G126U U135C | ≤ -4.2 |
| C35U G65C C76U C96A | ≤ -4.2 |
| U31G G50U U82C A147U | -0.72 |
| C32A G86C | ≤ -4.2 |
| C35U G124A | -0.554 |
| C36A A47U A52U U53A G59C A106G | ≤ -4.2 |
| C36A A49U C63U C79G C87U A106G G133A U144C | ≤ -4.2 |
| C35U G50U C93G | -3.56 |
| U33A G84A | -3.81 |
| C35G A41U G136U G141A | ≤ -4.2 |
| C32G U45A U56A A91U C93G A107C | ≤ -4.2 |
| C35U U56A | 0.225 |
| U31G U33A A89G U144C U146A | -4.01 |
| C35G C54G C79U U127A | ≤ -4.2 |
| U33A A39U C54U G92A C96G A106U A137G A138C | ≤ -4.2 |

| Variant | polymerase ribozyme fitness (log ratio) |
| --- | --- |
| C36A G94A A121C | -4.03 |
| U31G G83U | -0.727 |
| G34C C85G G141U | -4.04 |
| C36A U56G C103G A142G G143C | ≤ -4.2 |
| C35U C114U U139A | ≤ -4.2 |
| U33C A37C A64U | ≤ -4.2 |
| U33G U44A C93A C103A C105G G133C | ≤ -4.2 |
| U31G C99G U102G C108A C125U U127G U145G | ≤ -4.2 |
| U33A A40U C57U G86U G112A | ≤ -4.2 |
| C36A G143U | -4.12 |
| G34A A37G U61C | ≤ -4.2 |
| C35A G65A U144C | ≤ -4.2 |
| C35U C95U | -1.1 |
| C35U C85G A98U A115G C132A U135A | ≤ -4.2 |
| C32A G74U C85A A98U | -0.754 |
| C32G C79G C103G C105U A119U G140U | ≤ -4.2 |
| C35U C54A U55A G80C C108U U127A | ≤ -4.2 |
| C32G A60G U144G | ≤ -4.2 |
| G34A U56C G126U | -1.64 |
| C35G U55A A60C C75G C114G A119U | ≤ -4.2 |
| U33G C76U A97U A119C | ≤ -4.2 |
| C35A A98U A107U A137U | ≤ -4.2 |
| C36A A91U C93G C118A A137U | ≤ -4.2 |
| C35U A147C | -0.582 |

| Variant | polymerase ribozyme fitness (log ratio) |
| --- | --- |
| U31G C95U G126C | 0.488 |
| C35U C87U C96U C114U | -3.78 |
| C32A C54A U130A | ≤ -4.2 |
| C35A G83C C114A | ≤ -4.2 |
| G34C C93A A106U | ≤ -4.2 |
| C32U G126U | -2.43 |
| C36A G74C | ≤ -4.2 |
| C32G G88C | -3.96 |
| C32G U53A G86C A91C A120U A121U | ≤ -4.2 |
| C35G C76G G81A U82G C93U A121G G152U | -3.58 |
| C36A C57A C79A G83U C93G C114U | ≤ -4.2 |
| C35A A66C U104G | ≤ -4.2 |
| C35U U77C G88A G124U | ≤ -4.2 |
| C36A | -2.97 |
| C36A G58A G67U G81C C103G A113U U134G G141U | ≤ -4.2 |
| G34A G71A G88C A91C | ≤ -4.2 |
| C35U A64U C116A G140C | -3.97 |
| C32U C38U G58C | -2.43 |
| C35G A47C G67C A91C C103G | ≤ -4.2 |
| C32G U56A C57U C76A C93A C118G U135C | ≤ -4.2 |
| C35G C38A C69U G84U | ≤ -4.2 |
| C32G G42C A47G G59C A91U A107G | ≤ -4.2 |
| C32U G81C C114G | ≤ -4.2 |
| U33G G48A U61A A121U A142G | -3.95 |

| Variant | polymerase ribozyme fitness (log ratio) |
| --- | --- |
| C35A C72U C118A G126C | ≤ -4.2 |
| C32A U45A G80C C87G U90G G152U | ≤ -4.2 |
| C35A A40U A49G C87A G112C | ≤ -4.2 |
| C36A A60G G143A | ≤ -4.2 |
| C32U G68A G80C C96G A150U | ≤ -4.2 |
| U33G A98U G124C | -3.27 |
| C32G A47G C72A A73C C96A U127C | ≤ -4.2 |
| C35U C87U | -0.746 |
| C35U C95U G126A | -1.49 |
| C35U A52C G58U G59C G70U C85A G152U | ≤ -4.2 |
| U33C C93A C99G G128U | ≤ -4.2 |
| C32G C76A C87A | ≤ -4.2 |
| C35A G65A | -3.77 |
| C35U U61A | -1.27 |
| C32G C57A G59A G74A C85U A120G U144C | -2.27 |
| C36A A47U G74U G92C A115G C149G | ≤ -4.2 |
| U31G U33G U61G C72U C87G A106C U135G | ≤ -4.2 |
| C35U C93G A119G | -3.76 |
| C32G C57U G83U C103A C116U U127G G143U | ≤ -4.2 |
| C35A U55A | -2.64 |
| C35U A49C G94C A98G C118U | ≤ -4.2 |
| C35G U55C G68U A91G G126A | ≤ -4.2 |
| C35U C93G G126A C131U U139A | -4.11 |
| C35G C76G A89G | -3.96 |

| Variant | polymerase ribozyme fitness (log ratio) |
| --- | --- |
| C32G C108G G140U G141A U145G | ≤ -4.2 |
| C32U G68U C87G C99G | -4.11 |
| C32G A40U C95A | -3.93 |
| G34U A41U G84A U145C | -3.69 |
| C36A C51G C85A | ≤ -4.2 |
| C32G U56A | -4.1 |
| U33G U53A G59C G84A G94A C125G U144C | ≤ -4.2 |
| C35A A39G | ≤ -4.2 |
| U31G G50C G58U G88U | ≤ -4.2 |
| C36A G48A G50A C69G G71A | ≤ -4.2 |
| C32G A91G | ≤ -4.2 |
| C32G G94A A97U | ≤ -4.2 |
| C32G A73U A97U A120G G126A | ≤ -4.2 |
| G34A A39C C93A U104C | ≤ -4.2 |
| C32U U44A A91G C118A | ≤ -4.2 |
| U31G G48U G58A C79A C85U U101G | ≤ -4.2 |
| C35A G94C G128A | ≤ -4.2 |
| C36A C95U U104A C118G | ≤ -4.2 |
| G34U A60C C108G A150C | -4.17 |
| C35A A60C A66U A120U U146C A150U | ≤ -4.2 |
| C36A C79U G88C A113G A150U | ≤ -4.2 |
| C36A C116A | -3.76 |
| C32U G68A | -3.89 |
